According to the RNAGym collection of RNA variant scans (doi:10.1021/acssynbio.7b00057):

B1: Pistol ribozyme (parent)
chain: GGGUCGUUGUUCCAUAAUCGCGUGGAUAUGGCACGCAAGUUUCUACCGGGCACCGUAAAUGUCCGACUGGAGCCGUUCGGGCGGCUAUAAACAGACCUCAGGCCCGAAGCGUGGCGGCACCUGCCGCCGGUGGUAAAAAAGAUCGGAAGAGCACACGUCU

Variants of: B1
Assay: aptazyme ON/OFF ratio, guanine; higher = stronger switching; co-transcriptional cleavage with and without guanine

Row | Variant | aptazyme ON/OFF ratio
1 | U7A U8C G9C U10C U11A C12A C13U | 1.03
2 | U7A U8C G9C U10C U11A C12A C13G | 1.06
3 | U7A U8C G9C U10C U11A C12A C13A | 1.01
4 | U7A U8C G9C U10C U11A C12U C13A | 1.04
5 | U7A U8C G9C U10C U11A C12U C13U | 1.02
6 | U7A U8C G9C U10C U11A C12U C13G | 1.01
7 | U7A U8C G9C U10A U11G C13U | 1.09
8 | U7A U8C G9C U10A U11G C13A | 1.1
9 | U7A U8C G9C U10A U11G C13G | 1.12
10 | U7A U8C G9A U10G U11A C12U | 1.04
11 | U7A U8C G9A U10G U11A C12A | 1.13
12 | U7A U8C G9A U10G U11A C12G | 1.27
13 | U7A U8C G9C U10A U11G | 1.11
14 | U7A U8C G9C U10A U11A | 1.07
15 | U7A U8C G9C U10A U11C | 1.08
16 | U7A U8C G9A U11A C12U C13G | 1.13
17 | U7A U8C G9A U11A C12U C13A | 1.25
18 | U7A U8C G9A U11A C12U C13U | 1.18
19 | U7A U8C G9C U10C C12A | 1.03
20 | U7A U8C G9C U10C C12U | 1.04
21 | U7A U8C G9C U10C C12G | 1.03
22 | U7A U8C G9C U10G U11A C13U | 1.02
23 | U7A U8C G9C U10G U11A C13G | 1.1
24 | U7A U8C G9C U10G U11A C13A | 1.05

Row | Variant | aptazyme ON/OFF ratio
25 | U7A U8C G9C U10A U11C C12G C13U | 1.27
26 | U7A U8C G9C U10A U11C C12G C13G | 1.27
27 | U7A U8C G9C U10A U11C C12G C13A | 1.29
28 | U7A U8C G9C U10A U11G C12A | 1.04
29 | U7A U8C G9C U10A U11G C12G | 1.12
30 | U7A U8C G9C U10A U11G C12U | 1.19
31 | U7A U8C G9A U10C U11C C12G | 1.11
32 | U7A U8C G9A U10C U11C C12U | 1.04
33 | U7A U8C G9C U10G C12G | 1.12
34 | U7A U8C G9C U10G C12U | 1.02
35 | U7A U8C G9C U10G C12A | 1.07
36 | U7A U8C G9C U10G C12U C13G | 1.11
37 | U7A U8C G9C U10G C12U C13A | 1.06
38 | U7A U8C G9C U10G C12U C13U | 1.26
39 | U7A U8C G9C U10G U11A C12G C13U | 1.08
40 | U7A U8C G9C U10G U11A C12G C13G | 1.17
41 | U7A U8C G9C U10G U11A C12G C13A | 1.02
42 | U7A U8C G9A U10C U11G C12A C13G | 1.33
43 | U7A U8C G9A U10C U11G C12A C13U | 1.14
44 | U7A U8C G9A U10C U11G C12A C13A | 1.12
45 | U7A U8C G9C C12A C13A | 1.11
46 | U7A U8C G9C C12A C13G | 1.14
47 | U7A U8C G9C C12A C13U | 1.07
48 | U7A U8C G9A U11A C12G C13A | 1.11

Row | Variant | aptazyme ON/OFF ratio
49 | U7A U8C G9A U11A C12G C13U | 1.16
50 | U7A U8C G9A U11A C12G C13G | 1.21
51 | U7A U8C G9A U10G U11G C12A C13A | 1.39
52 | U7A U8C G9A U10G U11G C12A C13U | 1.27
53 | U7A U8C G9A U10G U11G C12A C13G | 1.15
54 | U7A U8C G9A U10G U11C | 1.04
55 | U7A U8C G9A U10G U11A | 1.03
56 | U7A U8C G9A U10G U11G | 1.08
57 | U7A U8C G9C U10A U11G C12A C13G | 1.12
58 | U7A U8C G9C U10A U11G C12A C13U | 1.11
59 | U7A U8C G9C U10A U11G C12A C13A | 1.11
60 | U7A U8C G9A U10C U11G | 1.16
61 | U7A U8C G9A U11C C12A C13G | 1.16
62 | U7A U8C G9A U11C C12A C13A | 1.19
63 | U7A U8C G9A U11C C12A C13U | 1.23
64 | U7A U8C G9A U11G C12A C13U | 1.08
65 | U7A U8C G9A U11G C12A C13G | 1.21
66 | U7A U8C G9A U11G C12A C13A | 1.22
67 | U7A U8C G9A U10G U11A C12A C13U | 1.24
68 | U7A U8C G9A U10G U11A C12A C13A | 1.19
69 | U7A U8C G9A U10G U11A C12A C13G | 1.11
70 | U7A U8C G9A U10G C12U | 1.23
71 | U7A U8C G9A U10G C12G | 1.15
72 | U7A U8C G9A U10G C12A | 1.1

Row | Variant | aptazyme ON/OFF ratio
73 | U7A U8C G9A U11G C12U C13U | 1.32
74 | U7A U8C G9A U11G C12U C13G | 1.22
75 | U7A U8C G9A U11G C12U C13A | 1.28
76 | U7A U8C G9C U10C U11C C12G C13A | 1.02
77 | U7A U8C G9C U10C U11C C12G C13U | 1.07
78 | U7A U8C G9C U10C U11C C12G C13G | 1.09
79 | U7A U8C G9A U10G U11C C13U | 1.05
80 | U7A U8C G9A U10G U11C C13G | 1.06
81 | U7A U8C G9A U10G U11C C13A | 1.06
82 | U7A U8C G9A U11C C12U C13G | 1.16
83 | U7A U8C G9A U11C C12U C13A | 1.22
84 | U7A U8C G9A U11C C12U C13U | 1.19
85 | U7A U8C G9C U10C U11C C12A C13U | 0.998
86 | U7A U8C G9C U10C U11C C12A C13A | 0.998
87 | U7A U8C G9C U10C U11C C12A C13G | 1.03
88 | U7A U8C G9C U10A C12U C13G | 1.07
89 | U7A U8C G9C U10A C12U C13U | 1.07
90 | U7A U8C G9C U10A C12U C13A | 1.05
91 | U7A U8C G9C U10C U11A C12G C13G | 1.08
92 | U7A U8C G9C U10C U11A C12G C13U | 1.1
93 | U7A U8C G9C U10C U11A C12G C13A | 1.03
94 | U7A U8C G9C C13U | 1.07
95 | U7A U8C G9C C13G | 1.06
96 | U7A U8C G9C C13A | 1.07

Row | Variant | aptazyme ON/OFF ratio
97 | U7A U8C G9A U10C U11G C12U C13G | 1.35
98 | U7A U8C G9A U10C U11G C12U C13A | 1.29
99 | U7A U8C G9A U10C U11G C12U C13U | 1.41
100 | U7A U8C G9A U11A C12U | 1.25
101 | U7A U8C G9A U11A C12G | 1.26
102 | U7A U8C G9A U11A C12A | 1.43
103 | U7A U8C G9A U10C U11G C12G C13U | 1.1
104 | U7A U8C G9A U10C U11G C12G C13G | 1.29
105 | U7A U8C G9A U10C U11G C12G C13A | 1.23
106 | U7A U8C G9A U11A C12A C13G | 1.09
107 | U7A U8C G9A U11A C12A C13U | 1.17
108 | U7A U8C G9A U11A C12A C13A | 1.31
109 | U7A U8C G9A U11G C13G | 1.31
110 | U7A U8C G9A U11G C13U | 1.22
111 | U7A U8C G9A U11G C13A | 1.27
112 | U7A U8C G9A U10C U11C C13G | 1
113 | U7A U8C G9A U10C U11C C13A | 1.04
114 | U7A U8C G9A U10C U11C C13U | 1.02
115 | U7A U8C G9C U10A U11G C12G C13A | 1.08
116 | U7A U8C G9C U10A U11G C12G C13G | 1.13
117 | U7A U8C G9C U10A U11G C12G C13U | 1.14
118 | U7A U8C G9C U10G C12A C13A | 1.06
119 | U7A U8C G9C U10G C12A C13G | 1.12
120 | U7A U8C G9C U10G C12A C13U | 1.07

Row | Variant | aptazyme ON/OFF ratio
121 | U7A U8C G9C U10A U11A C12U C13G | 1.08
122 | U7A U8C G9C U10A U11A C12U C13U | 1.05
123 | U7A U8C G9C U10A U11A C12U C13A | 1.09
124 | U7A U8C G9C U10G U11A C12U C13G | 1.01
125 | U7A U8C G9C U10G U11A C12U C13A | 1.07
126 | U7A U8C G9C U10G U11A C12U C13U | 1.03
127 | U7A U8C G9C U10G U11A C12A | 1.26
128 | U7A U8C G9C U10G U11A C12U | 1.04
129 | U7A U8C G9C U10G U11A C12G | 1.11
130 | U7A U8C G9C U10A U11A C12A C13U | 1.05
131 | U7A U8C G9C U10A U11A C12A C13A | 1.05
132 | U7A U8C G9C U10A U11A C12A C13G | 1.08
133 | U7A U8C G9A U11G C12G | 1.24
134 | U7A U8C G9A U11G C12A | 1.11
135 | U7A U8C G9A U11G C12U | 1.79
136 | U7A U8C G9C U10G U11G C12A | 1.24
137 | U7A U8C G9A U11A C13U | 1.3
138 | U7A U8C G9A U11A C13A | 1.16
139 | U7A U8C G9A U11A C13G | 1.09
140 | U7A U8C G9C U10G C13G | 1.09
141 | U7A U8C G9C U10G C13A | 1.1
142 | U7A U8C G9C U10G C13U | 1.14
143 | U7A U8C G9C U10C C12U C13U | 1.04
144 | U7A U8C G9C U10C C12U C13G | 1.06

Row | Variant | aptazyme ON/OFF ratio
145 | U7A U8C G9C U10C C12U C13A | 1.04
146 | U7A U8C G9C U10C U11A C12U | 1.03
147 | U7A U8C G9C U10C U11A C12G | 1.02
148 | U7A U8C G9C U10C U11A C12A | 1.07
149 | U7A U8C G9A U10G U11G C13U | 1.18
150 | U7A U8C G9A U10G U11G C13A | 1.25
151 | U7A U8C G9A U10G U11G C13G | 1.15
152 | U7A U8C G9C U10G | 1.01
153 | U7A U8C G9C U10C | 1.18
154 | U7A U8C G9C U10A | 1.17
155 | U7A U8C G9A U11C C12G C13G | 1.07
156 | U7A U8C G9A U11C C12G C13U | 1.16
157 | U7A U8C G9A U11C C12G C13A | 1.13
158 | U7A U8C G9C U10G U11C C12U C13A | 1.12
159 | U7A U8C G9C U10G U11C C12U C13G | 1.16
160 | U7A U8C G9C U10G U11C C12U C13U | 1.11
161 | U7A U8C G9C C12G C13A | 1.07
162 | U7A U8C G9C C12G C13G | 1.09
163 | U7A U8C G9C C12G C13U | 1.18
164 | U7A U8C G9A U10G U11C C12A | 1.19
165 | U7A U8C G9A U10G U11C C12U | 1.06
166 | U7A U8C G9A U10G U11C C12G | 1.22
167 | U7A U8C G9C U10A U11A C12A | 1.09
